The source of these data is patent US20260209362A1 (VIB VZW, published 2026).

The target in experiment [1] is T1, biotinylated recombinant human IL-12Rβ2 (produced in-house) (human, UniProt Q99665 24-622, random biotinylated).
T1 construct: also called hIL-12RB2; hIL12RB2
T1 sequence: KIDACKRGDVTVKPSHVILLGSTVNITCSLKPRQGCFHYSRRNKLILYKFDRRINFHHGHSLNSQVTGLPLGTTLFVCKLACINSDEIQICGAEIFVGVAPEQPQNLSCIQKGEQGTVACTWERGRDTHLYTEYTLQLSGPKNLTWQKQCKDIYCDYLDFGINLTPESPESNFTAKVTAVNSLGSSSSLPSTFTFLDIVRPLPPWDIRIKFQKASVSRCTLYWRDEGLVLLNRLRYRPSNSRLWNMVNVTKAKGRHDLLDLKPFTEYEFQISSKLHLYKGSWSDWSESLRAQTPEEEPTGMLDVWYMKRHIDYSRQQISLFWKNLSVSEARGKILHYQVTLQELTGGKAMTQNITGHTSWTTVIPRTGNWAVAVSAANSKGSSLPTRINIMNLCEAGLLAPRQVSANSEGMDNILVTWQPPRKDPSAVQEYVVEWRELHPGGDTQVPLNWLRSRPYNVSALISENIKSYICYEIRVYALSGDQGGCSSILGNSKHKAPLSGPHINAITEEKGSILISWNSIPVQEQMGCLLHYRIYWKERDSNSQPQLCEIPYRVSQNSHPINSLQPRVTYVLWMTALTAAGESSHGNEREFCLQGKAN
Kind of experiment: BLI (Octet), P.E. VHH on immobilised biotinylated hIL-12RB2, 1:1 model.

The target in experiment [2] is T1, biotinylated recombinant human IL-12Rβ2 …. Kind of experiment: ELISA, P.E. VHH on biotinylated hIL-12RB2, signal ratio to control well.
Experiment [3] addresses T2, biotinylated recombinant mouse IL-12Rβ2 (produced in-house) (mouse, UniProt P97378 24-637, random biotinylated).
T2 construct: also called mIL-12RB2; mIL12RB2
T2 sequence: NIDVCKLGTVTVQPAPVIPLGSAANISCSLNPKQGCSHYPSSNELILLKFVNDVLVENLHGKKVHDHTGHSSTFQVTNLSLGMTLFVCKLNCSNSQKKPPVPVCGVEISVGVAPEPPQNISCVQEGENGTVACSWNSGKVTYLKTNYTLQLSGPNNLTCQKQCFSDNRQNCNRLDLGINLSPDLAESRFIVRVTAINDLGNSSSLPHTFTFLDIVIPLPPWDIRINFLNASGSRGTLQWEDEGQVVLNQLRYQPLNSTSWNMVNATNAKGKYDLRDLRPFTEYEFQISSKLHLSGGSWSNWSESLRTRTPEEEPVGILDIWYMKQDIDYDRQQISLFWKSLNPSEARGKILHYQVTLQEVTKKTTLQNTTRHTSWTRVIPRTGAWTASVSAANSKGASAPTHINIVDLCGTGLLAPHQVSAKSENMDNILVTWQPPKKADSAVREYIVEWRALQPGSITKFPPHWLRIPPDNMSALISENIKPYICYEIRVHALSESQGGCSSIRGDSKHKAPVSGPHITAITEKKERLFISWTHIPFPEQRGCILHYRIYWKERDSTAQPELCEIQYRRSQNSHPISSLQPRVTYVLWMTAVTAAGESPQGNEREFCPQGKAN
Kind of experiment: ELISA, P.E. VHH on biotinylated mIL-12RB2.

The target in experiment [4] is T2, biotinylated recombinant mouse IL-12Rβ2 …. Put plainly: ELISA, P.E. VHH on biotinylated mIL-12RB2, signal ratio to control well.
The target of experiment [5] is T1, biotinylated recombinant human IL-12Rβ2 …. Put plainly: BLI (Octet), P.E. VHH on immobilised biotinylated hIL-12RB2.
Experiment [6] addresses T3, human IL-12Rβ2 expressed on cells (human, UniProt Q99665 24-862).
T3 construct: HEK293T cells transiently transfected with a human IL-12Rβ2 plasmid (Genscript OHu21785); also called hIL-12RB2
T3 sequence: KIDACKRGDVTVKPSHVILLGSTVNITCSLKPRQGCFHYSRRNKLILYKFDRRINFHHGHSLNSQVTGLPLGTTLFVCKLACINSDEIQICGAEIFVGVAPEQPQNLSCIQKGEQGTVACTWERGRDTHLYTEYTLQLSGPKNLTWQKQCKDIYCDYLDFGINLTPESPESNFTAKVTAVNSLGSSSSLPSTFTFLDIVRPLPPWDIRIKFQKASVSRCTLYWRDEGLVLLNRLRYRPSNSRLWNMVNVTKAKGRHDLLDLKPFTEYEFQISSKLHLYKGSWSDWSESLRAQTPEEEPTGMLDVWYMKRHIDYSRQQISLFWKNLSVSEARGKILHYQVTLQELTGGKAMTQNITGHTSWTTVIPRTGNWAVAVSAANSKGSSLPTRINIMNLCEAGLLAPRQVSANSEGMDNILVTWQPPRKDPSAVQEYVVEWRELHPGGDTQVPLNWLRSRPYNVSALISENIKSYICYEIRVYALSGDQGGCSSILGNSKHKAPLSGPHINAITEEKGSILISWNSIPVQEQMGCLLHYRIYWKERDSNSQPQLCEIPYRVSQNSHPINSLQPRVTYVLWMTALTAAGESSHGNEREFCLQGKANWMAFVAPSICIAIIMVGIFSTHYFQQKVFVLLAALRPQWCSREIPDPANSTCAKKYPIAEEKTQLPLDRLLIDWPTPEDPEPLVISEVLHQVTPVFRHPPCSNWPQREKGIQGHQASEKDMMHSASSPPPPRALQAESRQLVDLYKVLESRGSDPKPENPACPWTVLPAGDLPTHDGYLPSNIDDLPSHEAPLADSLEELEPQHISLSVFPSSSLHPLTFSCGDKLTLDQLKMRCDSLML
Put plainly: flow cytometry, P.E. VHH on HEK293T cells transiently expressing hIL-12RB2.

B1: anti-IL-12Rβ2 VHH clone 3CRHS163 (VHH, not shown: small tags and cut ends)
VHH: QVQLQESGGGLVQPGGSLRLSCTASGFAFSTYWMYWIRQSPEKGFEWVSVVNTGGDITYYADSVKGRFTISRDNAKNTLYLQMNSLKPEDTALYYCARDRTTMSYTRTYYRGGQGTQVTVSS
notes: tested as periplasmic extract
In the case of B1, in experiment [1], the koff worked out at 0.00302 s⁻¹. For the same molecule, the “ELISA hIL12RB2/control” value in experiment [2] is 3.58. Besides, in experiment [3], the binding result is given as “no binding”. For the same molecule, in experiment [4], the “ELISA mIL12RB2/control” value was found to be 0.93. Besides, in experiment [5], the Response worked out at 0.339. Also, in experiment [6], the dMFI was 1050.

B2: anti-IL-12Rβ2 VHH clone 3CAHS124 (VHH, not shown: small tags and cut ends)
VHH: QVQLQESGGGLVQPGGSLRLSCAASGRTINAYIMGWFRQAPGKEREFVAAVSGSGGSTYYADSVKGRFTISRDNAKNTVNLQMDNLRSEDTDVYYCAATYESVYLQNPGQYDYWGQGTQVTVSS
notes: tested as periplasmic extract
In the case of B2, the koff in experiment [1] worked out at 0.00324 s⁻¹. In addition, in experiment [2], the “ELISA hIL12RB2/control” value worked out at 5.67. For the same molecule, in experiment [3], the binding result is “no binding”. Besides, the “ELISA mIL12RB2/control” value in experiment [4] stood at 1. In addition, the Response in experiment [5] was found to be 0.293. Besides, the dMFI in experiment [6] amounted to 1100.

B3: anti-IL-12Rβ2 VHH clone 3CRH25 (VHH, not shown: small tags and cut ends)
VHH: QVQLQESGGGLVQAGDSLRLSCTASGHTFSRYTTIGWFRQAPGKDREFVAAIRWSGDITDYADAVKGRFTISRDNVKNTVYLQMNSLNPEDTAVYYCARGYSEYGVLSRNRGLYAYWGQGTQVTVSS
notes: tested as periplasmic extract
In the case of B3, the koff in experiment [1] is 0.00205 s⁻¹. In addition, the “ELISA hIL12RB2/control” value in experiment [2] turned out to be 5.16. Moreover, the binding result in experiment [3] is reported as “no binding”. In experiment [4], the “ELISA mIL12RB2/control” value worked out at 1.04. The Response in experiment [5] was 0.523. In experiment [6], this molecule returned a dMFI of 520.

B4: anti-IL-12Rβ2 VHH clone 3CRHS106 (VHH, not shown: small tags and cut ends)
VHH: QVQLQESGGGLVQPGGSLRLSCKASGFTFSTYAMSWVRQAPGKGLEWVSAVNSGGLSTDYADSVEGRFTISRDDAKNMLFLQMNSLKPEDTARYYCAKYEDCSDYMCHRDRAGYWGQGTQVTVSS
notes: tested as periplasmic extract
With B4, in experiment [1], the koff came out at 0.00355 s⁻¹. Moreover, in experiment [2], the “ELISA hIL12RB2/control” value is 10.2. In addition, the binding result in experiment [3] is “no binding”. Further, the “ELISA mIL12RB2/control” value in experiment [4] came to 1.03. Also, the Response in experiment [5] is 0.297. This molecule also gave a dMFI in experiment [6] of 1010.

B5: anti-IL-12Rβ2 VHH clone 2CRH82 (VHH, not shown: small tags and cut ends)
VHH: QVQLQESGGGLVQAGGSLRLSCAASARTESMYAMAWFRQAPGKEREIVAGIIQSGGTTYISDYMKGRFSIDRGNAENTVYLQMDSLKPEDTAVYSCAAKVSSGTPSDIQISQSRWYDHWGQGTQVTVSS
notes: tested as periplasmic extract
On to B5, for which, in experiment [1], the koff came out at 0.00274 s⁻¹. The “ELISA hIL12RB2/control” value in experiment [2] was determined as 16.1. Also, the binding result in experiment [3] is recorded as “no binding”. Further, in experiment [4], the “ELISA mIL12RB2/control” value was determined as 1.77. Besides, the Response in experiment [5] amounted to 0.426. Further, the dMFI in experiment [6] turned out to be 744.

B6: anti-IL-12Rβ2 VHH clone 3CAHS41 (VHH, not shown: small tags and cut ends)
VHH: QVQLQESGGGLVQAGDSLRLSCAASGRTFDTYIVGWFRQAPGKEREFVSALSWSDDTTIRDDSLRGRFTISRDNAKNTVYLLMNSLKPEDTAVYYCAAKAKPPAATWSSYRNREWYDYWGQGTQVTVSS
notes: tested as periplasmic extract
In the case of B6, the koff in experiment [1] was determined as 0.00441 s⁻¹. Also, in experiment [2], the “ELISA hIL12RB2/control” value came out at 8.77. For the same molecule, the binding result in experiment [3] was “no binding”. The “ELISA mIL12RB2/control” value in experiment [4] came to 1.35. The Response in experiment [5] was found to be 0.609. In experiment [6], this molecule came in with a dMFI of 971.

B7: anti-IL-12Rβ2 VHH clone 3CAHS171 (VHH, not shown: small tags and cut ends)
VHH: QVQLQESGGGLVQPGGSLRLTCVASGFPFSTHAMSWVRQPPGKGREWISAINSGGDSTDYADSVMGRFTISRDNAKNTVYLQMNSLKSEDTAAYYCAKYEDCSDYDCSSRASWGQGTQVTVSS
notes: tested as periplasmic extract; also called 3CANS171
Turning to B7, the koff in experiment [1] amounted to 0.00431 s⁻¹. Also, in experiment [2], the “ELISA hIL12RB2/control” value was found to be 3.27. In addition, in experiment [3], the binding result is reported as “no binding”. Further, the “ELISA mIL12RB2/control” value in experiment [4] was found to be 0.96. Also, the Response in experiment [5] worked out at 0.195. In addition, in experiment [6], the dMFI stood at 1180.

B8: anti-IL-12Rβ2 VHH clone 3CAHS142 (VHH, not shown: small tags and cut ends)
VHH: QVQLQESGGGLVQAGESLTLSCIASGVIKDYAMGWFRQAPGKEREFVAAISWSGVSIYYADSVKGRFTISRDNAKNTVYLQMNSLEPEDTAVYYCAGTEGAYTVAGGSTFGYDMDYWGKGTQVTVSS
notes: tested as periplasmic extract
With B8, in experiment [1], the koff was found to be 0.00324 s⁻¹. Moreover, the “ELISA hIL12RB2/control” value in experiment [2] was 4.98. The binding result in experiment [3] was “no binding”. For the same molecule, the “ELISA mIL12RB2/control” value in experiment [4] is 1.07. The Response in experiment [5] is 0.352. In experiment [6], this molecule came in with a dMFI of 812.

B9: anti-IL-12Rβ2 VHH clone 3CAHS102 (VHH, not shown: small tags and cut ends)
VHH: QVQLQESGGGLVQPGGSLRLSCAASGSILRINLMGWYRQVPGKQRELVAEMSTGGSTTYVDSVEGRFTISRDNAKNTVYLQMNSLKPEDTAVYYCNAKAWQLGRLENDDWGQGTQVTVSS
notes: tested as periplasmic extract
B9: in experiment [1], the koff came out at 0.00267 s⁻¹. Besides, in experiment [2], the “ELISA hIL12RB2/control” value is 3.54. Moreover, the binding result in experiment [3] is reported as “no binding”. Besides, the “ELISA mIL12RB2/control” value in experiment [4] came out at 1.02. Besides, the Response in experiment [5] came out at 0.323. The molecule further had a dMFI in experiment [6] of 994.
